2 substances from patent US20030073218 can be followed below.

In this data set the test system is RR-Src peptide.

Turning to “GST-XD4 (glutathione S-transferase fusion of the XD4 fragment of v-Src, wild-type catalytic domain)”, the KM (mM) for protein substrate RR-Src, ATP saturated is 2.6 mM.

For GST-XD4(V323A, I338A), the KM (mM) for protein substrate RR-Src, ATP saturated worked out at 3.1 mM and the KM (mM) for protein substrate RR-Src, N^6-(cyclopentyl)ATP saturated stood at 2.1 mM.
